This is an account of results in publication PMC4836650 (RNA, 2016).

The assay deals with L7Ae (Pyrococcus furiosus, UniProt Q8U160 1-123). The assay can be described thus: SEC.

B1: Nop5 (L148K, V223E) (natural protein)
chain: MKAFISENVRGIYAFDENGNLIEKRYFTDKPEKVLDQLLKGEITKDLEELLNSLKEKGYDEFVFEHPELSRRAKELGFSATTEFPNIAGERLRSNPEEFLGENWFEEYYKVGVALTRMRIQEQSGARDKMVIQAIEALDDVDKVINLKVARLREWYSLHFPELDELLPKHPQYVAFVKTVGHRDNINEEVLRELGLSEEKIKKILEAKEKTMGAWMDQTDIEEVRQLAEEIDRLYQLRKKLEDYIDRAMDDVAPNLKALVGAKLAARLISLAGGLRELAMMPSSTIQVLGAEKALFRHLRTGAKPPKHGVIYQYPAINRSPWWQRGKIARALAGKLAIAARVDYFSGEYIAEELKKELEARIREIKEKYPKPPKRKREERKGKKPWKKDKKKKKKKEKPRRR
As for B1, the binding result is listed as “binds”.
